Test results from patent US20040186056A1 (SANFORD BURNHAM MEDICAL RESEARCH INSTITUTE, published 2004).

B1: phage expressing the HMGN2 exon 3 sequence PQRRSARLSA (SEQ ID NO: 11) (other)
chain: PQRRSARLSA
notes: not shown: T7 phage coat protein fusion partner

Legend:
[1] = biological target: T1, nucleolin (110-kDa protein of MDA-MB-435 cells, in cell extracts and inside cells) (human, UniProt P19338 2-710); test: affinity chromatography of MDA-MB-435 cell extract on peptide matrix, SDS gel, mass spectrometry
T1 construct: also called 110 kDa band; full-length nucleolin
Description: 276:48588-48595 (2001). Briefly, 6×10⁸ MDA-MB-435 cells grown in RPMI 1640 medium with 10% fetal calf serum were pelleted and lysed in 60 ml of RIPA buffer (1% Triton X-100, 0.5% deoxycholic acid, 0.1% SDS, 10 mM Tris-HCl pH 7.6, 150 mM NaCl, and 1% Protease Inhibitor Cocktail for Mammalian Cells; SIGMA). […] Matrix beads were washed three times with IP-wash buffer (0.025% Triton X-100, 50 mM Tris-HCl pH 8.4, 150 mM NaCl, 1 mM CaCl₂, and 0.02% azide), two times with 25 mM Tris-HCl pH 8.4/250 mM NaCl, and eluted with 30 μl of SDS gel sample buffer. Affinity-purified proteins were reduced with 50 mM DTT before being separated on an 8-20% polyacrylamide gel and visualized by Colloidal Blue staining (Invitrogen; Carlsbad, Calif.). Bands that appeared in the peptide SEQ ID NO: 9 eluate, but not in control eluate, were cut out, digested with trypsin and analyzed by mass spectroscopy using matrix-assisted laser desorption ionization-time of flight analysis (Voyager DE-PRO, Applied Biosystems; Foster City, Calif.). Peptide samples were prepared using an alpha-cyano-4-hydroxycinnamic acid (HCCA)/nitrocellulose matrix.

[2] = biological target: T2, cell surface nucleolin on intact tumor cells (MDA-MB-435, HL-60) (human, UniProt P19338 2-710); test: phage binding to tumor cells, pfu count; the filing names nucleolin as the receptor only later
T2 construct: Native nucleolin on human tumor cell lines; also called cell surface-expressed nucleolin
From the text: Phage displaying a set of sequences corresponding to fragments of the amino-terminal portion of HMGN2 (SEQ ID NO: 5) were constructed to localize the region responsible for cell binding and in vivo homing. Fragments were designed to follow the exon/intron boundaries of the HMGN2 gene. Inserts encoding the indicated fragments were amplified from the full length HMGN2 phage clone by PCR, purified, digested and directionally cloned into the T7 415-1 and 10-3 vectors. Phage were packaged, amplified and sequenced according to the manufacturer's instructions. Phage preparations were then tested for binding to primary cells obtained from HL-60 xenograft tumors. After a 1 hour incubation at 4° C., cells were washed, and bound phage quantified. […] Furthermore, phage displaying the N-terminal portion of the active fragment SEQ ID NO: 9, which corresponds to exon 3 of the HMGN2 gene, were prepared. These phage expressing the sequence […] (SEQ ID NO: 11) bound to tumor cells 90-fold more than non-recombinant phage.
The phage binding assay was performed essentially as follows. Attachment of phage to cells was quantified by incubating 1×10⁸ pfu of phage displaying SEQ ID NO: 9 for 60 minutes with 1×10⁶ HL-60 cells at 4° C. in Tris-buffered saline with 1 mM Ca⁺² and 1 mM MgCl₂. […] Bound phage were quantified by plating and counting pfu.

T1 sequence (P19338 other isoform, or with tags, fused parts or gaps limits assumed): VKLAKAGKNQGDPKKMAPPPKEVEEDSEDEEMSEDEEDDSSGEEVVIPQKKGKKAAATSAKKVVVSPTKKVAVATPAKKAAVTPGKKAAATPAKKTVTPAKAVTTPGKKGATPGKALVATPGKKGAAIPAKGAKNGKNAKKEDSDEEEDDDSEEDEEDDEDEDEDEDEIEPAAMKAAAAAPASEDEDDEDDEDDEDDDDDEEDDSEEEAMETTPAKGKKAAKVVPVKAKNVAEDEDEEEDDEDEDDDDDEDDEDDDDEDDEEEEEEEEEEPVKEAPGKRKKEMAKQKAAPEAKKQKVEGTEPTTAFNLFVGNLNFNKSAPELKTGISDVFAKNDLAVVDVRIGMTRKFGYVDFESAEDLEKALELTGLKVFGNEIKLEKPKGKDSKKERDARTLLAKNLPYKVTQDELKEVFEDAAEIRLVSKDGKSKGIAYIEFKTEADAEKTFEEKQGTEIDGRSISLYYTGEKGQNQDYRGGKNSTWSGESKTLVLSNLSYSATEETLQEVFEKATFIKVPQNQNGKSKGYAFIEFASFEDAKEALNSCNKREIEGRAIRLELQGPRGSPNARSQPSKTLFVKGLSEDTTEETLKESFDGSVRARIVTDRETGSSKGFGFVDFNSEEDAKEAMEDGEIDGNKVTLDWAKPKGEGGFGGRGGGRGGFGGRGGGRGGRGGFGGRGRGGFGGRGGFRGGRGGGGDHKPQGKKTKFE
T2 sequence (P19338 other isoform, or with tags, fused parts or gaps limits assumed): as above

| Binder | binding result [1] | fold binding over non-recombinant phage [2] [fold] |
| --- | --- | --- |
| APKDKPAAVKERKKPAPKPRPQELRSKKAKPAPAS (also called control matrix) [control peptide APKDKPAAVKERKKPAPKPRPQELRSKKAKPAPAS (SEQ ID NO:20)] | no binding |  |
| B1 |  | 90 |
